Measurements from the supplement of paper PMC9732359.
± gives the uncertainty stated by the source.

Assay: protein stability index of a GFP-peptide fusion (yeast GPS) (PSI 1-4); higher = more stable; sorted into four equal gates, so the index is relative within each strain
Procedure, shortened: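 Tiled 17-residue peptides from yeast proteins were fused downstream of GFP on a plasmid that also expresses Cherry, and the pooled library was carried in yeast. Mid-log cultures grown in leucine-free medium were sorted into four equal gates by GFP/Cherry fluorescence ratio. Plasmids from each gate were PCR-amplified and Illumina-sequenced, and reads were assigned to strains by barcodes. Each peptide's protein stability index is the sum, over gates, of the gate's read frequency multiplied by its gate number.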

| Sequence | protein stability index (doa10∆) | protein stability index (pdr5∆) | protein stability index (san1∆) | protein stability index (ubr1∆) |
| --- | --- | --- | --- | --- |
| TLVSTDNYFNLQLNEAE [SMX3] | 2.94 ± 0.069 | 2.91 ± 0.059 | 2.82 ± 0.053 | 2.79 ± 0.048 |
| IKNIGKSLKNNFYRPLL [YML103C/NUP188] | 2.6 ± 0.08 | 2.62 ± 0.1 | 2.7 ± 0.079 | 2.77 ± 0.078 |
| FLSLLNLATKGMVKLNE [REC8] | 2.77 ± 0.07 | 1.59 ± 0.055 | 1.6 ± 0.078 | 1.58 ± 0.045 |
| LALTTLSEPLIKIGIRV [YCG1] | 1.81 ± 0.061 | 2.06 ± 0.047 | 1.74 ± 0.065 | 2.01 ± 0.057 |
| EFIPHSTEYMMQFAKSK [RPN6] | – | 3.28 ± 0.17 | 2.8 ± 0.1 | 1.91 ± 0.14 |
| ARIALRHLEKEGIIKPI [RPS25A] | 2.98 ± 0.092 | 3.37 ± 0.16 | 3.06 ± 0.094 | 3.12 ± 0.085 |
| DSLIQLANRSKENFILD [YJL039C/NUP192] | – | – | 3.23 ± 0.14 | 3.13 ± 0.11 |
| PGDVLDKDAFIPKLKPA [SNU114] | 1.89 ± 0.094 | 1.5 ± 0.098 | 1.2 ± 0.18 | 1.71 ± 0.12 |
| TQLSYLISSSLSNLSKD [YCS4] | 1.7 ± 0.041 | 1.65 ± 0.041 | 1.63 ± 0.074 | 2.13 ± 0.045 |
| GQCRTELEGSFNKSAEL [YCS4] | 3.04 ± 0.09 | 2.51 ± 0.095 | 2.6 ± 0.1 | 2.9 ± 0.081 |
| EKQTPNKKDKKKEEEEQ [RPN1] | 3 ± 0.059 | 2.98 ± 0.092 | 3.01 ± 0.042 | 3.16 ± 0.058 |
| PRPSYSSRPNVNTTRRF [YMR129W/POM152] | 2.89 ± 0.099 | 2.97 ± 0.096 | 2.92 ± 0.074 | 2.82 ± 0.067 |
| VPVKLEEIKTVDPASAP [RRP6] | 2.83 ± 0.13 | 2.56 ± 0.16 | 2.87 ± 0.17 | 2.79 ± 0.11 |
| LLDNEIRIFRSELQRLS [RPT5] | 2.4 ± 0.26 | – | 3.09 ± 0.076 | 3.03 ± 0.21 |
| VFLRNRLKYALNGREVK [RPS4A] | 2.93 ± 0.099 | 2.82 ± 0.12 | 2.69 ± 0.086 | 3.06 ± 0.095 |
| KAINQELEDVAVKKLYA [YCS4] | 3.26 ± 0.17 | 3.23 ± 0.13 | 2.72 ± 0.07 | 2.94 ± 0.08 |
| LDNLTEDPNSAAFDEVE [DIS3] | 3.19 ± 0.085 | 3.3 ± 0.072 | 3.22 ± 0.041 | 3.12 ± 0.043 |
| ERSSKRLAKKPSMKKIK [SIR3] | 3.18 ± 0.08 | 3.12 ± 0.084 | 3.06 ± 0.057 | 3.06 ± 0.079 |
| VKQLENVSSNIVKNAEQ [RPS20] | 2.58 ± 0.092 | 2.84 ± 0.081 | 3.15 ± 0.049 | 2.86 ± 0.056 |
| LAGKVGSIRVHKSGKLS [RPC53] | 1.45 ± 0.058 | 1.59 ± 0.072 | – | 1.28 ± 0.06 |
| SGGNNTATIINNESSDD [PCI8] | 2.63 ± 0.091 | 2.65 ± 0.087 | 2.69 ± 0.092 | 3.17 ± 0.055 |
| RMSYGSHDKKTKCSTVV [SRP14] | 2.96 ± 0.092 | 3.07 ± 0.12 | 3.19 ± 0.045 | 3.33 ± 0.088 |
| PKDYIKKLLEVHDIFSK [CDC53] | 1.46 ± 0.042 | 2.04 ± 0.06 | 1.75 ± 0.099 | 1.66 ± 0.04 |
| ATSKTSEMLAKYSDILL [CDC53] | 3.11 ± 0.091 | 3.18 ± 0.099 | 2.99 ± 0.1 | 3.07 ± 0.048 |
| GSIPSLTTQFVTDKYTA [YDL088C/ASM4] | 2.54 ± 0.08 | 2.54 ± 0.066 | 2.46 ± 0.087 | 2.58 ± 0.079 |
| TERVVEIGPSPTLAGMA [FAS2] | 2.501 ± 0.018 | 2.599 ± 0.017 | 2.496 ± 0.019 | 2.496 ± 0.012 |

| Sequence | protein stability index (doa10∆) | protein stability index (pdr5∆) | protein stability index (san1∆) | protein stability index (ubr1∆) |
| --- | --- | --- | --- | --- |
| RCTKIIKGNGESDETTT [RPT1] | 3.18 ± 0.14 | – | 3.36 ± 0.038 | 3.54 ± 0.11 |
| DATFAGHSLGEYAALAS [FAS1] | 2.73 ± 0.14 | 3 ± 0.08 | 2.83 ± 0.11 | 2.49 ± 0.073 |
| LKMQQQQQQQQQQQQQQ [GAL11] | 2.69 ± 0.084 | 2.89 ± 0.073 | 2.62 ± 0.073 | 2.64 ± 0.067 |
| GGLTKQIKEIKEVIELP [RPT6] | 3.74 ± 0.27 | – | 3.48 ± 0.27 | – |
| VNARDIPPLNKSLAMEH [CSN12] | 2.77 ± 0.23 | 2.67 ± 0.17 | 2.61 ± 0.19 | – |
| QRIIKELSIRFPQYKLT [ARP7] | 1.9 ± 0.058 | 1.67 ± 0.089 | 2.12 ± 0.081 | 1.7 ± 0.047 |
| GRLNTLVISLAATNETF [IRR1] | 1.64 ± 0.088 | 1.38 ± 0.065 | 1.1 ± 0.23 | 1.17 ± 0.06 |
| SRDLWCFSINDDPVPTP [SSN2] | 2.21 ± 0.085 | 2.21 ± 0.088 | 2.94 ± 0.081 | 2.63 ± 0.1 |
| KEQADIYAKQQEQLKQM [ARP7] | 1.75 ± 0.065 | 2.25 ± 0.086 | 1.78 ± 0.14 | 2.88 ± 0.066 |
| HFFSKSCSFFAKLSDTL [NUT1] | 2.06 ± 0.047 | 1.77 ± 0.041 | 1.69 ± 0.085 | 1.95 ± 0.035 |
| YFGENSSISWKNIAQCL [YJL039C/NUP192] | 1.95 ± 0.084 | 2.57 ± 0.066 | 1.93 ± 0.064 | 2.11 ± 0.062 |
| RSISEPSINLDPDNTSF [ESC2] | 2.9 ± 0.074 | 3 ± 0.057 | 3.07 ± 0.058 | 3.165 ± 0.031 |
| ARQRGKLKKSEEKVLST [SRP68] | 3.28 ± 0.19 | 3.21 ± 0.11 | 3.33 ± 0.071 | 3.67 ± 0.21 |
| QSSEDVITIKSRIRVKI [RPB7] | 2.4 ± 0.11 | 2.41 ± 0.075 | 2.51 ± 0.078 | 3 ± 0.12 |
| CELQVETYGSMEMSEKI [RPN5] | 2.76 ± 0.096 | 2.96 ± 0.074 | 2.71 ± 0.071 | 2.84 ± 0.077 |
| KIPDTYTANTSAQSIAS [YAR002W/NUP60] | 1.99 ± 0.049 | 2.13 ± 0.056 | 2.07 ± 0.059 | 2.56 ± 0.034 |
| KYYLEESNVNDSDMLTK [NUT1] | 3.13 ± 0.097 | 3.15 ± 0.082 | 3.31 ± 0.07 | 3.36 ± 0.086 |
| PGHSLLLSIKLPGKVNT [SNF5] | 2.37 ± 0.059 | 1.77 ± 0.039 | 2.08 ± 0.058 | 2.29 ± 0.04 |
| GRLLRAMFEICLKRGWG [BRR2] | 1.75 ± 0.11 | 1.59 ± 0.091 | 1.76 ± 0.12 | 1.81 ± 0.077 |
| LLDTNSLEENAMSTVTL [SKI6] | 3.11 ± 0.086 | 3.04 ± 0.066 | 3.04 ± 0.083 | 2.89 ± 0.061 |
| MNTVPFTSAPIEVTIGI [AAR2] | 1.49 ± 0.092 | 2.01 ± 0.12 | 1.47 ± 0.22 | 1.64 ± 0.083 |
| VTYSDVGGCKDQIEKLR [RPT1] | 3.51 ± 0.16 | 3.67 ± 0.2 | 2.92 ± 0.25 | 3.39 ± 0.12 |
| CVYVPNFNASLQLTTNT [SNM1] | 2.06 ± 0.038 | 2.71 ± 0.047 | 2.52 ± 0.047 | 2.02 ± 0.065 |
| ATGNESQDATKVDATPE [YLR335W/NUP2] | 2.87 ± 0.086 | 3.22 ± 0.082 | 3.04 ± 0.066 | 2.94 ± 0.099 |
| SFSLTVSKEQFLKDADV [YJL039C/NUP192] | 1.47 ± 0.041 | 1.45 ± 0.056 | 1.54 ± 0.11 | 1.64 ± 0.045 |
| FGVPNSSKNETSKPVFS [YLR335W/NUP2] | 2.32 ± 0.035 | 2.97 ± 0.13 | 2.55 ± 0.13 | 3.15 ± 0.068 |
